This series in a line: protease stability score; higher = more stable; yeast display proteolysis, trypsin and chymotrypsin.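 Note: relative to predicted unfolded state with 0 unfolded-like and 1 meaning tenfold more protease.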
Turning to “SEEEEEIERYVQHLVHNILTGDWEMIQELADPNAKIDIDGRHFHGREQFVDLMLRLIESLGIDHLRLTHVRIQGDYMELHVEVHVGDKRVELESFATKIDGRWFVKSFTKR”, the protease stability score was 1.97.

The sequence “SDEEKESKHMFKIYLDFLRTGNEEQYSEMADPNVRIEVNGVTIHGRELAVKFMKEVRDEMRIHDYRIRHLDVFNGRVHADTEENVEFNGVRFITRTKIHLHIVNGRIKSVREEID” returned a protease stability score of 0.903.

“DEIDELMEMMARILIRLWQTGDEETWSRLADPDVRVTIGEFHTHGMERALLIIQEIRRHWRIHHIHIHDMRVFENRSRVNGKVDGEIDGQKDVRETRIEVVLIDGRLQEVRVKTK” yielded a protease stability score of 0.91.

Sequence “DEESEDAKRVLDEWLHMLDTGNEERLHELADPNMRFDVNGKEIHGMEIWQKEMKRSLTHHGAEMHHRIRTIEVQGNKILVDGELIINFNGRTYLHKIHIIFQKFDGRWHVESLTIK” showed a protease stability score of -0.052.

Turning to “DEKSEHILELLRLMLELLVTGDWSMLRKLVDPNARMYYGDKEFHGWEDMVKFIKILLERIDHVEIRLHNSDVQGEKAKSDGTLIERVNGQEVRFDSHIINIVVNGRAKEVRIEVH”, the protease stability score is 1.22.

“DEDKELAIRMIRLLMHALHTGDEDLLDELLDPNTKVDVDGQDLVGREQFLRDLRHIRIEIKDSHIHDVRVQGDKVRSHSYINGRREYDGVRLETEFRVLFIIRKVNGKWIFKSIHSL” displayed a protease stability score of 1.3.

On to “NEDEENMKKLLEDFLESLLTGDFDKLTRLADPHARIVQGDKELHGRDEIHEFWKRTMEHIRITHSYVREIDIINGRLHTDIHWDLQVGDKRYSHRVELILLKIDGKWVLHEVEFR”, for which the protease stability score was 1.27.

“SEKEKILEHFSELWYRLFRTGDEDTLHRMFDPDYRLIYGDKESHGRRLVWIMIAELRIHDWRLRRYHVQGDKAHFDVEVTGEFNGRREHNREEIIITVIDGRATEVEIRID” displayed a protease stability score of 0.54.

“TEEDEMWKELSDILLEIHETGDWDRLIRLVDPDVKVNIDGKDLHGWQEVAHTIRVLLEQFKGVKIIIRHVEIQGDKVHIHMEIRQGDKHYEVHLHYIVVNGKIKQMHMHRR” came in with a protease stability score of 1.

The sequence “STEEREVYEWVHELLNAFNTGDEDFYYERMDPHVRFESQFNGKELDIVGREKVLKWTKTFWDDLGVDHSKLRSFRIQGDKLILHMEVTINGRHIQVDFFHVIVDGKLHSEEIRIH” had a protease stability score of 0.649.

“DEYKRDADEVIRLWAEAMETGDEKLFLELFDPDTRSIFNGVELHGRQDIEMWRNRYDHVRHVRTEVEDSHIYNGRVEDHVRLILDVEVNGQREHHSHEILVYSVKFDGRWHFTMVEIR” registered a protease stability score of 0.607.

“SEDEHLTRNLAKDTIRALETGDEDRLNELFDPDVRLEIGDFMSHGRKSFTDTLRRFKNLTLHIHDMRVIGDKVHIDGEVDWNGQRRKTEIIIVIVDGKLKQIHYNIH” gave a protease stability score of 0.874.

As to “DEDMKIASHVFHLIMHILHTGDEDSLKELADPDYRWLFNGVSNVGREESVRRLEEIRLEMKDTKTRSAKIYDGRIELHSHVRGNLNVNGVEIEHSVRSRLFVSKVDGKWLVEHIEIG”, the protease stability score was -0.045.

Consider “DEHQERIEEVLRDILEVLETGDWRKWHRLMDPHVLLIIFINGRKLSFHGMETVISHLQHEWRRVKGLQFELKHVELQGDYIHIDGHVRFNGQQTRIEIRIDIVDGKIHQLEFKFD”, for which the protease stability score was determined as 1.53.

“SEEEKLWHEIIRRILHSWDTGDEDTLNELIDPNARLIIDVNGRIIRRHGWEEMHEFIEKVRRDLGADHVHFDHINIQGNKVETDVTIEIGDKKMRSHLIIIVIDGQIHELKIIHR”: the protease stability score amounted to 1.83.

“VEDLQLAEHVTRLLLHLVHTGDFDVMKELLDPNVRIHVDGQDYHGRDVWKHILDRFDYISVHHSEVKENDVQGNKVNIRVHTDVIFEYGDKRLRQRYDVVVIAQKINGRWIIELFSVR” displayed a protease stability score of 1.22.

For the sequence “DEEHEMIQTHLRLFHEALLTGDEEELHRLLDPNVRVDIGDKHLHGREVVIHWMRQIRVKHLDLDLDHERSVNGRVDIKGTLRSDVIINGQRHKTSHTLHFHATKINGRWFIKEYIVD”, the protease stability score is 2.06.

With “DEEEEQTHHMFKRILEVLRTGDERMLLDLADPHVRLEVGDKHMIGMDSLVHFNARIKNMRIRLRSIDFQGDYAHINTELEFDGRNHHITIVVLKVDGKWIIRSQHVK”, the protease stability score is 1.46.

As for “HEEEKSRKKEFEEYVRSVKTGDERLLTEMADPNARVHIGDKTLIGRELMHEMWHEQLKQIDVFHDIKTTHSEVQGDKIHMHVVEDIIIGDKRHTIRLRMIAWKFNGKWLVEEVRFE”, the protease stability score was found to be 0.435.

In turn, “SEDDEKLEQIIELLDKVMKTGDERAYNELMDPNTRYQVGDKEFHGMEWWSEIYSRHEKKLGIEKVEVDIENHHVQGDKVTVHGRVNINGREHEYRFVLTKVDGQWRLREENIK” yielded a protease stability score of 1.15.

Turning to “SETEKHLQDIADILVHAEITGDEETLNKMLDPDVRMHNEVNGREYHIHGREEVLKHWREWVTRFKGARIDIEDVHIINGVVHVNMKIIFNGRRIESRLDVEVVNGRVRTIRIHER”, the protease stability score was 2.15.

Consider “DEKEKIVHEMFKLWVDLLLTGDEEILRRMLDPNTRLDFNGVDVIGMERIADHLRHWRFHDIRIEHMRVYNGRVEVETRLDGYWDGRRIRTTSHILLVVVGDKIKEIHIKID”, for which the protease stability score amounted to 2.38.

Sequence “SELEEYLTYLSKLFVHALITGNEDKYTEEFDPRTRFEMLINGRRIEYHGRESVREFLRHFLEEWRIHHIDTTEIEFIGDKARIHGEQEVHFNGRNITTKVRIDILFYNGKMRDIRIEIE” registered a protease stability score of 2.15.

In turn, “HDEERELTIVSERIIKIFETGDWEELHKMADPRVKVIVNGRETHGMERYVKHLEQIRTILTNIHLHDVDLQGDFLHIDLEARGRILVNGRDTTFNWELKITIDKFDGRWRMKRINVN” displayed a protease stability score of 2.16.

In turn, “DEEHRHAEEILKDLQKALITGDEHNMMNLLDPHVRVDFDGVEIIGRELWVELFRTLKKELGITRFDIHLHTHDMKIFDGRVTLDTRLHLHYNGRTEERRVIIYVTKVNGRWHIESMEIK” returned a protease stability score of 1.82.

“SEDEERSKLIIDLWEHTQSTGDESLIERLLDPDARSHWDGVHVHGRKATKIMIERIDYVERVDFKEIRTYDGRVEIHGTIDGNFNGRRREMEVIIFVVKVDGKWRIRSIRFT” returned a protease stability score of 1.3.

The sequence “DESEESMRHALEEIIESMVTGDEDRLRELADPNVRSKVNGRDIHGWKVVSKLVKELRIRDVKVEDKDREVQGEWMYFHGLFRIDGEFDGRRVDLELDLTIIAHKVNGRWVIRMFKYR” showed a protease stability score of 1.63.

“SEDTRIAEELWRIMMDADRTGDEDRSKEMIDPNTQFIFNGRDVIGREVWAELFLRIDHIHLRDVEIHDSEVFNGKIHIDGHVDQEIRIGDKTLVEKVKVELIVLKINGKWLLKEVRFH” came in with a protease stability score of 1.35.

As to “DERDEAEKVLMKILLDNHHTGDEESLERLIDPNAKIIYGDKDYVGWELMIEWVRHARVHRVEIKDSRVQGDKVNLDGHEDGNINGKRRRTNVIVYLLKINGRWFFHSIQID”, the protease stability score stood at 2.17.

On to “DEWEEFVKRFLEAHVKANRTGDERLLQELIDPHVRIEFNGVELHGREIFTETISQLRIKDVNLRRYHMYDGQVEIHGELHGVFNGQEKDTKIHVREIKVDGRWKMKEYSIH”, for which the protease stability score turned out to be 0.994.

On to “SEEEHYRREMIHFSREVWETGDWDSLMNLADPNVRIEAENHDLHGREFFVKLMEEISRKFKNVRIIIRHLHIQGDKVEMHSEIIFNGRSVHVTFFALKVNGRWIFKEMVFI”, for which the protease stability score was found to be 0.925.

In the case of “DEDEEAVRHVVEEWFKFLLTGDEESFEKMFDPSARLIIGDKHYHGRDLLSHVLRELRFKEHRIHDMEIRVVNGKAEVIIHGHEVGIWNGVESESHSEIIIIIDKYDGRWHFHSVEIIFR”, the protease stability score was 2.

“SEEDRLLEELLKLYLHLEATGNEDRFAELVDPDARMDFNGREHHGREEIRHHMVKHWKDLGVKHLHIDRFRYFNGVLDVRGHLKVNGREKDVVWILEIIDGRIHEIRHHLH” registered a protease stability score of 1.28.

“SEDTRLKEEFLRRVLESEHTGDFESLQEMLDPNTRIEFNGQELIGREEAERILHQARIHDVKIKSMRLIDGRIELNGVLDGNFNGRRRHLEVRIYITKIDGRWVLESIEIE” registered a protease stability score of 1.49.

The sequence “SEEEKEARRILTHFREVLHTGDEHALLELMDPNVRFILHDENHTVENHGMENMVTSLRKFGFDVIKRVHDKEHHLQGDKIKFHVETLGEINGREFEVEVQIRLYVVDGVLKWSEIIIH” returned a protease stability score of 1.1.

“DEEEEMVREVLHRVIHNILTGDEDSVSRMADPHVRVKEIINGKEFTLHGREMMLHMIREWRNRADHVEIHIRRSRVINGRLDSHGLLIIEINGKEIRHDTNLHLYVVDGVIKILTWNIE” gave a protease stability score of 1.45.

In turn, “DELEEETERMFRIIIEFMLTGDWKTLYKLFDPNMLMIINGKELHGRESMATALKFWLRHIREDDIKIHHVELQGEKAISDGRSRGEIGDKEQTRKVHIEVIVINGRVHHVRVDIH” showed a protease stability score of 0.819.

In the case of “SESERYIHEAERHLIEKLRTGDWDDMSRLLDPHVRLDVNGQEFHGWHRVSDTMRRFGFKHVDVEDTHINEDELRSHLRSRVDGVHFELHIQMRKVNGRWFFKNLEFK”, the protease stability score was 1.15.

Regarding “DDHEKLSEEHMRFIRHAIKTGDEETLKELADPDMRINVNGRLFHGWEHFFKIWEHIRRHLRFKDYDIHDFEIYGDKIHADTRVKSRVNGVERIITTEVLIMKVDGRWYNHEVRLH”, the protease stability score is 0.71.

“DELEKVMHDMADLILHLYLTGDWETFLELADPNVKITIGDKEHHGWKSWKRLLEEELRRVDHIDSKLKRVIAIGDKAHVDGHMEINVNGREYRLDVHIIYVIVNGRHKEIEIHSE”: the protease stability score is 1.31.

Regarding “EEEEEELLELLKRLWHAKSTGDEETTEKMADPNARFIINGREVHGRHMLNHLVKHLREEIKHVHIHRVSVVNGKAKMDTEVNVELEYNGVTFIIRTRVEIDTVVIDGRFHSVSIEIR”, the protease stability score was 1.12.

“SEAEKRSEIILRLILHSLHTGDEHTLESLFDPNVRILIGDKELVGMEELSKLLRHIRIERVHIHLRDDRQQGDKADMDVELHRHGTFNGVRRDESSRIWIHAEKVDGRWVISEVIVH” came in with a protease stability score of 1.02.

“EEDLEHILELSEYFIRAWSTGDWDTIHKYADPHVRSDINGVESHGMEEMIRVYEEIRVTIEHVHYDHVTVQGEKLIVDGRMDYRVDINGKKKEHRTRVEIHVDVVNGRIKSFVINYR”: the protease stability score is 1.23.

“SEMEEESHKVVEYATHVFATGDEHLMRKNFDPDVKLDYNGKHFHGWEEFVKLMQTLREKYGVKHVKRVEIEDIRIIGNKVEVDTRVVQNVDGVPFELEITLILIKIDGKWRNHSSRIR” displayed a protease stability score of 0.037.

Sequence “SEHEEHIKHLAEEWIRLVLTGNEEIIDHLFDPNVRVEIDGREMIGREKMNEWMRHVLRHWRTHIVIRRMTAIGDKAHSDGELILHVGDKTIRTKVHFHLVIIDGRIHEVSVDIR” gave a protease stability score of 1.58.

Take “DEMEKMSRDVHKQLKNAFETGDESEMERLLDPHAKIDIGDKRLHGMEEYSHLLHEWRIKDLHIKDIQVQGDKAISDTHRYLEIGDKEYEREVIVYVIKVDGRWIIHSLVFR”: the protease stability score turned out to be 0.777.

The sequence “SEDEKIHREMSKIMLEDLFTGDWKSLRDLVDPNVRIIVDGREFHGREYYSRELIEELLKFKNARFDIEHVELRIYDGRLRTLIHMRVNIDGVEHWVIVEVDFTKIDGRWYVEEIRVEVR” had a protease stability score of 1.33.

For the origin of these results see the NTF2 design screens of Basanta et al. (2020).
